PMC8749432

Key:
[1] = target: HIV-1 BG505.W6M.B1 envelope glycoprotein A204E on SHIV-BG505 virions (HIV-1)
[2] = target: HIV-1 BG505.W6M.B1 envelope glycoprotein L193A on SHIV-BG505 virions (HIV-1)
[3] = target: HIV-1 BG505.W6M.B1 envelope glycoprotein I423A on SHIV-BG505 virions (HIV-1)

For “Soluble rhesus CD4 (Met1-Trp390) with C-terminal 6×His tag (from UniProt P16003 26-390) (domain or fragment)”, the neutralisation of SHIV-BG505 infection of TZM-bl cells by soluble rhCD4; sensitivity against WT SHIV (fold more sensitive than WT SHIV) [1] was 1500, the neutralisation of SHIV-BG505 infection of TZM-bl cells by soluble rhCD4; sensitivity against WT SHIV (fold more sensitive than WT SHIV) [2] was 3 and the neutralisation of SHIV-BG505 infection of TZM-bl cells by soluble rhCD4; sensitivity against WT SHIV (fold more sensitive than WT SHIV) [3] was 30.
